According to PMC10629583, “Specific inhibition of an anticancer target, polo-like kinase 1, by allosterically dismantling its mechanism of substrate recognition” (Proceedings of the National Academy of Sciences of the …, 2023):
[ ]: non-standard residue; d: D form. The star is where a group is joined. FITC = O=C1OC2(c3ccc(O)cc3Oc3cc(O)ccc32)c2ccc(NC(=S)*)cc21; pT = C[C@@H](OP(=O)(O)O)[C@H](N)C(=O)O; Ahx = NCCCCCC(=O)O

Columns and labels:
Conditions in all cases: both partners purified
[1] = target: T1, PBD1 (residues 345–603) F559R (human, UniProt P53350 345-603, F559R); experiment: fluorescence polarisation; inhibition assay: FITC-conjugated ligand (15 nM) mixed with PBD at its EC85 concentration, competitor varied; read about 30 min after reaction, 384-well format
T1 construct: Polo-like kinase 1 (Plk1), polo-box domain, residues 345-603, F559R; also called F559R mutant; source: E. coli (purified as described for the crystallography construct, Rosetta strain)

[2] = target: T2, PBD1 (residues 345–603) F559K (human, UniProt P53350 345-603, F559K); experiment: as above
T2 construct: Polo-like kinase 1 (Plk1), polo-box domain, residues 345-603, F559K; also called F559K mutant; source: E. coli (purified as described for the crystallography construct, Rosetta strain)

[3] = target: T3, PBD1 (residues 345–603) F559D (human, UniProt P53350 345-603, F559D); experiment: as above
T3 construct: Polo-like kinase 1 (Plk1), polo-box domain, residues 345-603, F559D; also called F559D mutant protein; source: E. coli (purified as described for the crystallography construct, Rosetta strain)

[4] = target: T4, PBD1 (residues 345–603) F559E (human, UniProt P53350 345-603, F559E); experiment: as above
T4 construct: Polo-like kinase 1 (Plk1), polo-box domain, residues 345-603, F559E; also called F559E mutant; source: E. coli (purified as described for the crystallography construct, Rosetta strain)

[5] = target: T5, Plk1 polo-box domain, PBD1 (residues 345–603) WT (human, UniProt P53350 345-603); experiment: fluorescence polarisation; direct binding: FITC-Ahx-DPPLHSpTAI-NH2 with different concentrations of recombinant PBD1 WT or mutants
T5 construct: Polo-like kinase 1 (Plk1), polo-box domain, residues 345-603; TEV-PBD1 fragment in pET-Duet-1; A TEV site precedes PBD1 in the insert; also called PBD1 WT; Plk1 PBD; source: E. coli (purified as described for the crystallography construct, Rosetta strain)

Measured: binding result

T2 sequence (P53350 345-603 F559K): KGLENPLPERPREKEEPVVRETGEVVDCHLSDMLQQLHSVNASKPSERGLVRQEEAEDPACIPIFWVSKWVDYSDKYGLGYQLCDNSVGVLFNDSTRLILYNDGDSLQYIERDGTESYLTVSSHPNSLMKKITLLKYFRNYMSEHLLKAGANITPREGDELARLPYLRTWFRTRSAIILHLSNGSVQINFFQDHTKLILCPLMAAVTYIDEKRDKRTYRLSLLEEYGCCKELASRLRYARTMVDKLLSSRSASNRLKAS
T4 sequence (P53350 345-603 F559E): as the sequence (P53350 345-603 F559K) above, with K215E counted along it
T1 sequence (P53350 345-603 F559R): as the sequence (P53350 345-603 F559K) above, with K215R counted along it
T3 sequence (P53350 345-603 F559D): as the sequence (P53350 345-603 F559K) above, with K215D counted along it
T5 sequence (P53350 345-603): as the sequence (P53350 345-603 F559K) above, with K215F counted along it

B1: FITC-Ahx-DPPLHSpTAI-NH2 (peptide)
peptide: {FITC-Ahx}-DPPLHS[pT]AI-NH2
SMILES: CC[C@H](C)[C@H](NC(=O)[C@H](C)NC(=O)[C@@H](NC(=O)[C@H](CO)NC(=O)[C@H](Cc1c[nH]cn1)NC(=O)[C@H](CC(C)C)NC(=O)[C@@H]1CCCN1C(=O)[C@@H]1CCCN1C(=O)[C@H](CC(=O)O)NC(=O)CCCCCNC(=S)Nc1ccc2c(c1)C(=O)OC21c2ccc(O)cc2Oc2cc(O)ccc21)[C@@H](C)OP(=O)(O)O)C(N)=O
notes: also called FITC-conjugated phosphopeptide; FITC-conjugated ligand
binds: all assays above
